According to patent publication CN117186235A (SHANGHAI HUAIYUE BIOLOGICAL TECH CO LTD, dated 2023):

Tests used:
[1] = target: T1, 人4-1BB-hFc蛋白 (human, UniProt Q07011 24-186); assay: ELISA, plate coated with human 4-1BB-hFc at 1.0 μg/mL, HRP secondary antibody
T1 construct: extracellular domain; The coated protein of the ELISA is called 人4-1BB-hFc蛋白; also called h4-1BB蛋白; 4-1BB重组蛋白; not shown: human IgG Fc fragment (hFc) of the pCpC vector

[2] = target: T2, 人4-1BB (CHO-K1细胞表面表达) (human, UniProt Q07011 24-255); assay: FACS on CHO-K1 cells expressing human 4-1BB, FITC anti-human IgG Fc
T2 construct: whole, on cells; Stably expressed on CHO-K1 cells for FACS; also called h4-1BB; CHO-K1-h4-1BB

[3] = target: T3, 人源EGFRvIII (CHO-K1细胞表面表达) (human, UniProt P00533 25-1210); assay: FACS on CHO-K1 cells expressing human EGFRvIII, FITC anti-human IgG Fc
T3 construct: whole, on cells; Stably expressed on CHO-K1 cells; It is a deletion variant of EGFR and not the wild type; also called hEGFRvIII; CHO-K1-hEGFRvIII

T2 sequence (Q07011 24-255): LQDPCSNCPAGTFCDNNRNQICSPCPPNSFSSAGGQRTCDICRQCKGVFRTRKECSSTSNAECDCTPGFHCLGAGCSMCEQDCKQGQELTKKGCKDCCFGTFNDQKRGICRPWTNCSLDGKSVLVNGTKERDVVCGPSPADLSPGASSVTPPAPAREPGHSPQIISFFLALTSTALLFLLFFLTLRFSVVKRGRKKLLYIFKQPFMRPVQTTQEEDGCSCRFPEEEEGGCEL

Binder | binding result [1] | binding result [2] | binding result [3]
抗4-1BB抗体PE0116全长抗体 (antibody, V domains shown, Fully human antibody from Harbour transgenic mice; the bispecific uses it as IgG4; also called HY0101; PE0016) VH: QVQLVESGGGVVQPGRSLRLSCAASGLTFSSYGMHWVRQAPGKGLEWVAVIWYDGSNKYYADSVKGRFTISRDNSKNTLYLQMNSLRAEDTAVYYCAREEVLWFGELSYNYYYGMDVWGQGTTVTVSS VL: DIQMTQSPSSLSASVGDRVTITCRASQGISNYLAWYQQKPGKVPKLLIYAASTLQSGVPSRFSGSGSGTDFTLTISSLQPEDVATYYCQKYNSVPLTFGGGTKVEIK | binds | – | –
抗4-1BB/抗EGFRvIII双特异抗体HY1001007 (bispecific antibody, IgG4, IgG-scFv format: PE0116 IgG4 with the 043-1 VL-VH scFv fused to the C-terminus of the heavy chain (PE0116VH-CH-043-1VLVH); also called CH-scFv(043-1VLVH)-IgG4(PE0116); not shown: human IgG4 heavy chain constant region (from the expression vector); human light chain constant region of the expression vector; kappa or lambda not) heavy (part 1 of 2): QVQLVESGGGVVQPGRSLRLSCAASGLTFSSYGMHWVRQAPGKGLEWVAVIWYDGSNKYYADSVKGRFTISRDNSKNTLYLQMNSLRAEDTAVYYCAREEVLWFGELSYNYYYGMDVWGQGTTVTVSS heavy (part 2 of 2): GGGGSGGGGSGGGGSEIVLTQSPATLSLSPGERATLSCRASSSVSSSYLHWYQQKPGQAPRLLIYSTSNLAAGIPARFSGSGSGTDFTLTISSLEPEDFAVYYCQQYSGYPLTFGGGTKVEIKGGGGSGGGGSGGGGSQVQLVQSGAEVKKPGASVKVSCKASGYTFTDYNMDWVRQAPGQGLEWMGDINPNNADTIYNQKFKGRVTMTRDTSTSTVYMELSSLRSEDTAVYYCARGDYDGYYPVYYAMDYWGQGTTVTVSS light: DIQMTQSPSSLSASVGDRVTITCRASQGISNYLAWYQQKPGKVPKLLIYAASTLQSGVPSRFSGSGSGTDFTLTISSLQPEDVATYYCQKYNSVPLTFGGGTKVEIK | – | binds | binds
